Measurements as given in patent US20250161537A1, “IN-SITU INJECTABLE HYDROGEL ROD USING CROSSLINKED HYDROGEL, METHOD FOR MANUFACTURING SAME, AND BIOMEDICAL USE THEREOF” (AJOU UNIVERSITY INDUSTRY-ACADEMIC COOPERATION FOUNDATION, priority 2022, published 2025).

How the values were obtained:
[1] = Intraocular pharmacokinetic evaluation after intravitreal injection (ELISA of vitreous, retina, aqueous humor); type: in vivo, New Zealand White (NZW) rabbit
Procedure: Bevacizumab drug control, hydrogel (in situ forming hydrogel) in Comparative Example, and hydrogel rod in Example were injected. The rabbits were sacrificed on days 1, 4, 8, 14, 30, 60, 90, and 120. In order to maintain its drug efficacy, the concentration of drug must be maintained from vitreous humor to retina, while the drug may be eliminated to the anterior chamber site. For evaluation, pharmacokinetic analysis of vitreous, retina, and aqueous humor tissues was conducted through ELISA after animal sacrifice and ocular separation by date.
After animal sacrifice and ocular separation by date, pharmacokinetic analysis of vitreous, retina, and aqueous tissues was performed via ELISA. […] The hydrogel rod of Example is a pre-crosslinking matrix, and, after the initial burst release is inhibited by 7 times compared to the control and 3 times compared to the hydrogel of Comparative Example, the drug was continuously released within a certain range and the drug concentration of about 32 µg/mL was maintained on 120 day, satisfying a level above […] which is the drug efficacy threshold of bevacizumab.

[2] = system: human umbilical vein endothelial cells (HUVECs); assay: WST-1 assay, growth inhibition of HUVEC by released drug; type: cell-based; settings: released drug samples diluted 1:1 in culture medium; fresh bevacizumab 1, 10, 100 µg/mL
Procedure: The long-term efficacy and biological stability of drugs released were evaluated through culture of human umbilical vein endothelial cells (HUVECs), which are cells that are involved in angiogenesis. After culturing HUVECs, they were prepared in 2×10^4 cells/well in a 48-well plate and treated with the long-term released bevacizumab drug samples diluted in 1:1 ratio in a cell culture medium (EBM media containing EGM supplements and 1% P/S) and fresh bevacizumab drug samples by concentration so as to observe cell growth inhibition and safety. For the control of fresh bevacizumab drug samples by concentration, preparation was performed at final concentrations of 1, 10, and 100 µg/mL, diluted in cell culture media.

## bevacizumab
[1]; aqueous humor (drainway)
  initial excess elimination maintained until: 30 days
[1]; retina
  elimination curve: fastest elimination curve
[1]; vitreous
  elimination curve: fastest elimination curve
[2]
  inhibition of HUVEC cell growth (WST-1): inhibition of cell growth in proportion to the concentration of the drug
